In US20170022287A1 (Chugai, published 2017):
Positions count from the first letter of the chain named.

B1: R12 (antibody, V domains shown)
VH: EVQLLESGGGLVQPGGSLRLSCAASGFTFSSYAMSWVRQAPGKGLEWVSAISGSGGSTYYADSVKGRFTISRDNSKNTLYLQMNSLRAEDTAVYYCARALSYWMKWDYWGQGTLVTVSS
VL: DIQMTQSPSSLSASVGDRVTITCRASQSISSYLNWYQQKPGKAPKLLIYAASSLQSGVPSRFSGSGSGTDFTLTISSLQPEDFATYYCQQFNGFPLTFGGGTKVEIK
notes: Synthetic library clone; Fab on phage in the phage ELISA
B2: R11 (antibody, V domains shown)
VH: QVQLLESGGGLVQPGGSLRLSCAASGFTFSSYAMSWVRQAPGKGLEWVSAISGSGGSTYYADSVKGRFTISRDNSKNTLYLQMNSLRAEDTAVYYCARDKWYYYPALDYWGQGTLVTVSS
VL: B1 VL with N92S, G93R
notes: as for B1
B3: R8 (antibody, V domains shown)
VH: QVQLQESGPGLVKPSETLSLTCAVSGYSISSGYYWGWIRQPPGKGLEWIGSIYHSGSTYYNPSLKSRVTISVDTSKNQFSLKLSSVTAADTAVYYCARQHSFTRYYGYYYFDYWGQGTTVTVSS
VL: B1 VL with Q89L, F91S, N92D, G93S, F94I
notes: as for B1
B4: R13 (antibody, V domains shown)
VH: QVQLVESGGGLVQPGGSLRLSCAASGFTFSYYDIQWVRQAPGKGLEWVSSISPSGQSTYYRREVKGRFTISRDNSKNTLYLQMNSLRAEDTAVYYCARRTGREYGGGWYFDYWGQGTLVTVSS
VL: B1 VL with N92S, G93R
notes: as for B1
B5: R19 (antibody, V domains shown)
VH: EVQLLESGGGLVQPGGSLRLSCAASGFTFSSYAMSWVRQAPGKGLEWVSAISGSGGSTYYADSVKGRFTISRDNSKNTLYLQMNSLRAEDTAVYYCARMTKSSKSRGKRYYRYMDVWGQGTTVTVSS
VL: B1 VL with Q89L, F91V, N92Y, G93S, F94S
notes: as for B1
B6: R14 (antibody, V domains shown)
VH: B2 VH
VL: B1 VL with Q89L, F91V, N92Y, G93R, F94S
notes: as for B1
B7: R15 (antibody, V domains shown)
VH: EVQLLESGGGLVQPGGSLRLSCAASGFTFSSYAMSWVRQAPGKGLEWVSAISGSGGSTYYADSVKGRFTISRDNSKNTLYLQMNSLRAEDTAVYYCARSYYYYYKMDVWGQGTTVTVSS
VL: B1 VL with N92V, G93R, F94H, L96P
notes: as for B1
B8: 1D8VH-MB492/1D8VL-mk0 (antibody, mouse IgG1, kappa, V domains shown)
VH: QVQLKEAGPGLVQPTQTLSLTCTVSGFSLTSDGVHWIRQPPGKGLEWMGIIYYDGGTDYNSAIKSRLSISRDTSKSQVFLKINSLQTDDTAMYYCARIHFDYWGQGVMVTVSS
VL: DIVLTQSPTTIAASPGEKVTITCRASSSVSYMYWYQQKSGASPKLWIYDTSKLASGVPNRFSGSGSGTSYSLAINTMETEDAATYYCQQWSSTPLTFGSGTKLEIKR
B9: H237-mIgG1/MRAL-k0 (antibody)
heavy: QVQLQESGPGLVKPSETLSLTCAVSGHSISHDHAWSWVRQPPGEGLEWIGFISYSGITNYNPSLQGRVTISRDNSKNTLYLQMNSLRAEDTAVYYCARSLARTTAMDYWGEGTLVTVSSAKTTPPSVYPLAPGSAAQTNSMVTLGCLVKGYFPEPVTVTWNSGSLSSGVHTFPAVLQSDLYTLSSSVTVPSSTWPSETVTCNVAHPASSTKVDKKIVPRDCGCKPCICTVPEVSSVFIFPPKPKDVLTITLTPKVTCVVVDISKDDPEVQFSWFVDDVEVHTAQTQPREEQFNSTFRSVSELPIMHQDWLNGKEFKCRVNSAAFPAPIEKTISKTKGRPKAPQVYTIPPPKEQMAKDKVSLTCMITDFFPEDITVEWQWNGQPAENYKNTQPIMDTDGSYFVYSKLNVQKSNWEAGNTFTCSVLHEGLHNHHTEKSLSHSPGK
light: not shown
notes: Anti-human IL-6 receptor variable region H237 with mouse IgG1 constant region; copies: 2 + 2

Legend:
[1] = molecular target: full-length human CD137-Fc fusion protein (human); assay: ELISA, coated CD137-Fc protein 2 µg/mL, antibody 10 or 5 µg/mL; absorbance 620 nm divided by that of the uncoated well
Procedure: (§1) Fragmented human CD137-Fc fusion proteins were diluted to 2 μg/mL in an aqueous sodium carbonate solution adjusted to pH9.6. Fifty μL of a diluted fragmented human CD137-Fc fusion protein was added individually to each well of a Nunc MaxiSorp flat-bottom 96 well plate (Nunc). This was allowed to stand at 4° C. overnight or longer, and then the plate was allowed to stand at room temperature for one hour so that the plate has the same temperature as the room temperature. The solution containing the fragmented human CD137-Fc fusion protein was removed by tilting, and each well was washed three times with 300 μL of Wash buffer (TBS containing 0.1% Tween20, TaKaRa). Next, 150 μL of blocking buffer (TBS containing 2% BSA) was added to each well, and this was allowed to stand for one hour or more. The blocking buffer was removed by tilting, and each well was washed three times with Wash Buffer in a similar manner to an earlier step. Then, 50 μL of an antibody solution prepared in advance by dilution with TBS to 10 μg/mL or 5 μg/mL was added to each well. This was subjected to a speed of 600 rpm or so for one hour at room temperature to bind the antibody to the immobilized antigen. […] 100 μL of a secondary antibody solution produced by 1000-fold dilution with TBS containing 0.1% Tween20 was added to each well. For the secondary antibody, ANTIBODY ALKALINE PHOSPHATASE CONJUGATE HUMAN IMMUNOGLOBULIN ABSORBED Goat Anti-Human Kappa Alkaline Phosphate from BIOSOURCE was used in the case of antibodies carrying a Kappa chain, and Human Lambda Light Chain Antibody; Goat anti-Human Lambda Light Chain Antibody Alkaline Phosphatase Conjugated from BETHYL LABORATORIES INC. was used in the case of antibodies carrying a Lambda chain. […] Color development was performed using the BluePhos Microwell kit from KPL. After the chromogenic reaction was stopped using the AP stop solution from KPL, the absorbance was measured at 620 nm on an absorptiometer.

CRD1 = molecular target: T1, CRD1; assay: as above
T1 construct: also called fragmented human CD137-Fc fusion protein CRD1
Procedure: as §1

CRD1-2 = molecular target: T2, CRD1-2; assay: as above
T2 construct: also called fragmented human CD137-Fc fusion protein CRD1-2
Procedure: as §1

mouse CD137 on T cells = mouse CD137 on T cells (mouse, UniProt P20334 24-256); assay: cell-based or functional assay
[2] = molecular target: T3, mouse Fcγ receptor III extracellular domain with C-terminal His tag (mouse, UniProt P08508 31-215); assay: SPR (Biacore) kinetics, antibody captured on Protein L, mFcγR as analyte, 1:1 Langmuir model
T3 construct: extracellular domain; also called mFcγRIII; not shown: His tag at the C terminus
T3 sequence (looked up): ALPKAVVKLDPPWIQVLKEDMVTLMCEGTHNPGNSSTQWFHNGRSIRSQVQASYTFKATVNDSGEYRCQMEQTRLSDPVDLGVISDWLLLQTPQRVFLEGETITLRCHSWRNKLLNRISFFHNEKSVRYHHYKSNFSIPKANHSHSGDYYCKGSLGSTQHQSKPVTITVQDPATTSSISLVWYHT

Sequence of full-length human CD137-Fc fusion protein (human) (chain, as listed by the source limits assumed): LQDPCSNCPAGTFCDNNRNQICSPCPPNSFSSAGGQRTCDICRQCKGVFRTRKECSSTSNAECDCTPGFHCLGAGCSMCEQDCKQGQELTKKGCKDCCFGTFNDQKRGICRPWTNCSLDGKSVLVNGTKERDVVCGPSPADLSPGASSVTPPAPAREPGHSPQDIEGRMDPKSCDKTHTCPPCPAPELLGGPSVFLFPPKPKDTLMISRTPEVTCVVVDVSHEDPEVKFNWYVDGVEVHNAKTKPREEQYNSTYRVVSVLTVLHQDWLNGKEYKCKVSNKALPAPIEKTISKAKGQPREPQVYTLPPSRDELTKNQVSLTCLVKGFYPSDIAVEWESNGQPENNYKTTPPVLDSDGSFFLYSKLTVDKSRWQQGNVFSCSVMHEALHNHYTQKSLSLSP
T2 sequence (chain, as listed by the source limits assumed): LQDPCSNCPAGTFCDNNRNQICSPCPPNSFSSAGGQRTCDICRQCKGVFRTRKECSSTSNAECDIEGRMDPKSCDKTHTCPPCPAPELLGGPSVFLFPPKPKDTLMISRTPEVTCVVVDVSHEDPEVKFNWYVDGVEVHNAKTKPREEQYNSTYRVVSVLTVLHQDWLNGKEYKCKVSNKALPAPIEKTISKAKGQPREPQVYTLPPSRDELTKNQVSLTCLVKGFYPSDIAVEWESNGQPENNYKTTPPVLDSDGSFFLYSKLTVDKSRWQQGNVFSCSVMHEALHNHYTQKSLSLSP
Sequence of mouse CD137 on T cells (P20334 24-256): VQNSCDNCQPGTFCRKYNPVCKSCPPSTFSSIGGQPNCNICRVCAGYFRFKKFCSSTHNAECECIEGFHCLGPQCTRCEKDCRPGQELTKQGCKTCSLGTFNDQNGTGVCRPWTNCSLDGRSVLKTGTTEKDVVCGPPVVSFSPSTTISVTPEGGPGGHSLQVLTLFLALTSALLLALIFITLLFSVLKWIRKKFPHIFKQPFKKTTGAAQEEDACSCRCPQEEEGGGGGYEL
T1 sequence (chain, as listed by the source limits assumed): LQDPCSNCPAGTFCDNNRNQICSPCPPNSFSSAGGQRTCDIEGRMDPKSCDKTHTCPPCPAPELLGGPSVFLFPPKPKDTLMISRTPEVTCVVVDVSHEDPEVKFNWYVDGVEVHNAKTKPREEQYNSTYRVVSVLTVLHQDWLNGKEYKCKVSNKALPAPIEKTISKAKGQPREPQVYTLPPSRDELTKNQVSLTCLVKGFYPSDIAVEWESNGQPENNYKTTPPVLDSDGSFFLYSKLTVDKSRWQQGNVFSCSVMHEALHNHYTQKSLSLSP

Binder | Ratio with respect to Non-Coating [1] | further results
B1 | 1.1 | –
B2 | 1 | –
B3 | – | Ratio with respect to Non-Coating (CRD1): 0.7; Ratio with respect to Non-Coating (CRD1-2): 0.5
B4 | 0.4 | –
B5 | 0.9 | –
B6 | 0.9 | –
B7 | 0.6 | –
B8 | – | specific activity, mouse IFN-γ in the supernatant of spleen cells (ELISA) (mouse CD137 on T cells): ~8 fold
B9 | – | Kd [2]: 0.282 µM
